Test results: article PMC12785156

Target: T1, hydroxylated His-AtHPPD (under oxidative stress, H2O2) (Arabidopsis thaliana), P93836
T1 chain: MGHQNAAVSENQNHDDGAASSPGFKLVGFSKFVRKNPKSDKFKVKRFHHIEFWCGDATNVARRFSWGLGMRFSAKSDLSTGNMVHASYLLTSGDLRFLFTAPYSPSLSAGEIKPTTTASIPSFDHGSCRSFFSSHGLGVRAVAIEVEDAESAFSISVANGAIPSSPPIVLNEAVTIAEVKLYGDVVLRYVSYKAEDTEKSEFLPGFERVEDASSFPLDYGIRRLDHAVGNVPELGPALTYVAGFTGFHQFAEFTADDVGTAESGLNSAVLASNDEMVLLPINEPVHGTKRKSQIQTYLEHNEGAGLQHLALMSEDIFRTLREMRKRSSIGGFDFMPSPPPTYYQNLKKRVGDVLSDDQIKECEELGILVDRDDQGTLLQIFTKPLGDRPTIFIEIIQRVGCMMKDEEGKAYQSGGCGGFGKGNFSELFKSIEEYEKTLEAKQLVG
Assay: MST; as the MST of untreated His-AtHPPD, but AtHPPD under oxidative stress (H2O2, concentration not stated); GST-PUB11-ARM serially diluted; 25°C; 20 mM HEPES pH 8.0, 100 mM NaCl

B1: GST-PUB11-ARM (domain or fragment)
chain: QPAGYINGRTKNSGDMSVIRALVQRLSSRSTEDRRNAVSEIRSLSKRSTDNRILIAEAGAIPVLVNLLTSEDVATQENAITCVLNLSIYENNKELIMFAGAVTSIVQVLRAGTMEARENAAATLFSLSLADENKIIIGGSGAIPALVDLLENGTPRGKKDAATALFNLCIYHGNKGRAVRAGIVTALVKMLSDSTRHRMVDEALTILSVLANNQDAKSAIVKANTLPALIGILQTDQTRNRENAAAILLSLCKRDTEKLITIGRLGAVVPLMDLSKNGTERGKRKAISLLELLRKACQ
modifications: not checked
  Kd: 2.93 µM
